Assay results: patent publication US20030061635A1 (published 2003)

What was measured:
[1] = biological target: T1, Arabidopsis thaliana CaM isoform 2 (Arabidopsis thaliana, UniProt P0DH97 1-149); assay: slot blot of peptide probed with 35S-labeled AtCaM isoform
T1 construct: also called CaM2; CaM-2

[2] = biological target: T2, Arabidopsis thaliana CaM isoform 4 (Arabidopsis thaliana, UniProt P0DH96 1-149); assay: as above
T2 construct: Used 35S-labeled, unlabeled or HRP-labeled, depending on the assay; also called CaM4; CaM-4

[3] = biological target: T3, Arabidopsis thaliana CaM isoform 6 (Arabidopsis thaliana, UniProt Q03509 1-149); assay: as above
T3 construct: Used 35S-labeled, unlabeled or HRP-labeled, depending on the assay; also called CaM6; CaM-6

bovine CaM (calmodulin) [4] = biological target: T4, bovine CaM (calmodulin) (bovine, UniProt P62157 2-149); assay: gel mobility shift, 4 M urea, CaCl2; 166 pmol CaM and 166 pmol peptide
Description: (§1) To determine the stoichiometry of the CaM-peptide complex, we performed binding studies using the synthetic peptide (MP-1) and CaM in the presence of Ca²⁺ or EGTA. The binding of the synthetic peptide to CaM was detected by a gel mobility shift assay in polyacrylamide gels containing 4 M urea (FIG. 4A). […] In the presence of CaCl₂ the synthetic peptide retarded the migration of CaM in the gel indicating the formation of a complex between the peptide and CaM (FIG. 4A). […] At a molar ratio of 2:1 and 4:1 (peptide:CaM), the entire CaM migrated as a complex, and the band corresponding to the free CaM disappeared (FIG. 4A, lanes 3 and 4).
(§2) The interaction of CaM with synthetic peptide was also analyzed using electrophoretic mobility shift of CaM in the presence of a synthetic peptide. Each of the AtCaM isoforms and bovine CaM (166 pmol) were incubated with increasing concentrations of maize NPG1-synthetic peptide (166, 332, and 664 pmol) in the presence of 4 M urea, in a buffer containing 100 mM Tris-HCl, pH 7.5, and 1 mM CaCl₂ or 5 mM EGTA at room temperature for 1 h in a total volume of […]. Then, […] of sample buffer (0.375 M Tris-HCl, pH 6.8, 30% glycerol, and 0.023% bromphenol blue) was added to the samples and the mixture was electrophoresed in 12% polyacrylamide gels containing 4 M urea or 7.5% glycerol, 0.375 M Tris-HCl, pH 8.8, and either 1 mM CaCl₂ or 5 mM EGTA. The gels were run at a constant voltage of 25 V per gel in an electrode buffer (25 mM Tris-HCl, pH 8.3, 192 mM glycine, and either 1 mM CaCl₂ or 5 mM EGTA). The gels were stained with 0.25% Coomassie Blue R-250 in 7.5% acetic acid and 50% methanol for 1 h and then destained with 30% methanol and 7% acetic acid.

[5] = biological target: T1, Arabidopsis thaliana CaM isoform 2; assay: as above
Description: as §1, §2

[6] = biological target: T2, Arabidopsis thaliana CaM isoform 4; assay: as above
Description: as §1, §2

[7] = biological target: T3, Arabidopsis thaliana CaM isoform 6; assay: as above
Description: as §1, §2

bovine CaM (calmodulin) [8] = biological target: T4, bovine CaM (calmodulin); assay: tryptophan fluorescence spectroscopy, equimolar peptide and CaM, excitation 290 nm
Description: (§3) FIG. 4A is the analysis of CaM binding to a synthetic 18-amino acid peptide (MP-1, SEQ ID NO:2) by electrophoretic mobility shift polyacrylamide gels with 4 M urea. Lane 1 contained CaM alone (166 pmol), lanes 2-4 contained CaM (166 pmol) and 166, 332 and 664 pmol, respectively of synthetic MP-1. BCaM is bovine CaM, CaM2, CaM4, and CaM6 are the 2, 4, and 6 isoforms of Arabidopsis CaM. […] CaM and MP-1 (166 pmol) were incubated in 5 mM Tris, pH 7.3 and 0.5 mM CaCl₂. The excitation was measured at 290 nm and bandwidth for excitation and emission was 5 nm.
(§4) The tryptophan fluorescence spectra of free and CaM-bound synthetic peptide were recorded with a Hitachi-F-3010/4010 spectrofluorimeter as described in Reddy et al. (1996) supra. NPG1 peptide and AtCaMs (166 pmol each) were mixed in a […] reaction volume. The tryptophan residue in free and CaM-bound synthetic NPG1 peptide was excited at 290 nm and the emission wavelength values were recorded from 300 to 400 nm with a bandwidth of 5 nm in a 5-mm quartz cell at 25° C. Samples were incubated for 1 h at 25° C. prior to spectroscopic measurements. Corrections were made for the protein and solvent blanks.

[9] = biological target: T1, Arabidopsis thaliana CaM isoform 2; assay: as above
Description: as §3, §4

[10] = biological target: T2, Arabidopsis thaliana CaM isoform 4; assay: as above
Description: as §3, §4

[11] = biological target: T3, Arabidopsis thaliana CaM isoform 6; assay: as above
Description: as §3, §4

bovine CaM (calmodulin) [12] = biological target: T4, bovine CaM (calmodulin); assay: tryptophan fluorescence spectroscopy, equimolar peptide and CaM (166 pmol each), excitation 290 nm
Description: as §3, §4

[13] = biological target: T1, Arabidopsis thaliana CaM isoform 2; assay: as above
Description: as §3, §4

[14] = biological target: T2, Arabidopsis thaliana CaM isoform 4; assay: as above
Description: as §3, §4

[15] = biological target: T3, Arabidopsis thaliana CaM isoform 6; assay: as above
Description: as §3, §4

| Binder | binding result [1] | binding result [2] | binding result [3] | percent of CaM shifted at a molar ratio of 1:1 (peptide:CaM) (bovine CaM (calmodulin) [4]) [%] | percent of CaM shifted at a molar ratio of 1:1 (peptide:CaM) [5] [%] | percent of CaM shifted at a molar ratio of 1:1 (peptide:CaM) [6] [%] | percent of CaM shifted at a molar ratio of 1:1 (peptide:CaM) [7] [%] | wavelength of peak tryptophan emission of the peptide with CaM (free peptide about 350 nm) (bovine CaM (calmodulin) [8]) [nm] | wavelength of peak tryptophan emission of the peptide with CaM (free peptide about 350 nm) [9] [nm] | wavelength of peak tryptophan emission of the peptide with CaM (free peptide about 350 nm) [10] [nm] | wavelength of peak tryptophan emission of the peptide with CaM (free peptide about 350 nm) [11] [nm] | tryptophan fluorescence intensity of the peptide with CaM (free peptide about 0.1) (bovine CaM (calmodulin) [12]) | tryptophan fluorescence intensity of the peptide with CaM (free peptide about 0.1) [13] | tryptophan fluorescence intensity of the peptide with CaM (free peptide about 0.1) [14] | tryptophan fluorescence intensity of the peptide with CaM (free peptide about 0.1) [15] |
| --- | --- | --- | --- | --- | --- | --- | --- | --- | --- | --- | --- | --- | --- | --- | --- |
| AKLDQGSLLRVKAKLKVAQSSPM [synthetic peptide MP-2 (different region of maize NPG1, negative control)] | no binding | no binding | no binding | – | – | – | – | – | – | – | – | – | – | – | – |
| VSKGWRLLALILSAQQRF (Chemically synthesized, purity about 95%; also called the synthetic peptide; maize NPG1-synthetic peptide) [synthetic peptide MP-1 (18-amino acid CaM-binding domain of maize NPG1)] | – | – | – | ~50 | ~50 | ~50 | ~50 | ~315 | ~315 | ~315 | ~315 | ~6.1 | ~8.4 | ~4.5 | ~6.1 |
| ISSKEMVRLKKLVAYWKEQAGKK (Positive control peptide) [KCBP-peptide (CaM-binding peptide of kinesin-like calmodulin binding protein)] | binds | binds | binds | – | – | – | – | – | – | – | – | – | – | – | – |
